Measurements as given in patent US20230357370A1.

How the values were obtained:
[1] = molecular target: RSV F peptides F85-93 and F249-258 (respiratory syncytial virus, A2 strain)
[2] = molecular target: RSV F peptide 51-66 (respiratory syncytial virus, A2 strain)

splenic T cells of BALB/c mice vaccinated with A317 RNA delivered using electroporation (cells without a defined receptor)
CD8+ CD4- splenic T cells: % cytokine-positive, IFNg+ (intracellular cytokine immunofluorescence) [1]: 0.85%
CD4+ CD8- splenic T cells: % cytokine-positive, TNFa+ (intracellular cytokine immunofluorescence) [2]: 0.05%

splenic T cells of BALB/c mice vaccinated with A317 RNA formulated with CNE17 (cells without a defined receptor)
CD8+ CD4- splenic T cells: % cytokine-positive, IFNg+ (intracellular cytokine immunofluorescence) [1]: 1.25%
CD4+ CD8- splenic T cells: % cytokine-positive, TNFa+ (intracellular cytokine immunofluorescence) [2]: 0.05%

splenic T cells of BALB/c mice vaccinated with A317 RNA in liposomes RV01(01) (cells without a defined receptor)
CD8+ CD4- splenic T cells: % cytokine-positive, IFNg+ (intracellular cytokine immunofluorescence) [1]: 3.69%
CD4+ CD8- splenic T cells: % cytokine-positive, TNFa+ (intracellular cytokine immunofluorescence) [2]: 0.09%

splenic T cells of BALB/c mice vaccinated with VRPs expressing RSV-F (cells without a defined receptor)
CD8+ CD4- splenic T cells: % cytokine-positive, IFNg+ (intracellular cytokine immunofluorescence) [1]: 3.48%
CD4+ CD8- splenic T cells: % cytokine-positive, TNFa+ (intracellular cytokine immunofluorescence) [2]: 0.1%

splenic T cells of BALB/c mice vaccinated with naked self-replicating RNA A317 (cells without a defined receptor)
CD8+ CD4- splenic T cells: % cytokine-positive, IFNg+ (intracellular cytokine immunofluorescence) [1]: 0.74%
CD4+ CD8- splenic T cells: % cytokine-positive, TNFa+ (intracellular cytokine immunofluorescence) [2]: 0.03%

splenic T cells of unvaccinated BALB/c mice (cells without a defined receptor)
CD8+ CD4- splenic T cells: % cytokine-positive, IFNg+ (intracellular cytokine immunofluorescence) [1]: 0.01%
CD4+ CD8- splenic T cells: % cytokine-positive, TNFa+ (intracellular cytokine immunofluorescence) [2]: 0%
